# Experimental data: paper PMC3863792
# Positions count from the first letter of the chain named.
# T1: bio-d-mC5a (mirror-image mouse C5a) (mouse, UniProt P06684)
# T1 sequence: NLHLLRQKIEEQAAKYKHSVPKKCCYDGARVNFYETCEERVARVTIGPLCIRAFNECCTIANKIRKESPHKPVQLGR
# B1: 274-C8-002 (structured_RNA)
# RNA: GCCUGAUGUGGUGUUGAAGGGUUGUUGGGUGUCGACGCACAGGC
# B2: 274-C8-002-G14 (structured_RNA)
# RNA: B1 RNA with U14G
# Biological target: T1, bio-d-mC5a (mirror-image mouse C5a)
# Assay: competition
row,Binder,binding result
1,B1,binds
2,B2,binds
